Test results published in the nanobody polyreactivity screen of Harvey et al. (2022).

Assay: yeast display, Sf9 membrane polyspecificity reagent, FACS + sequencing; frameworks hold sequencing errors
Method in brief: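 In a synthetic yeast display library (Saccharomyces cerevisiae BJ5465), nanobody expression was induced with galactose for 36–48 hours. FACS gates were set low and high (top ~1%) using anti-HA fluorescence for expression and streptavidin fluorescence for binding of the Sf9 membrane reagent. Each polyreactivity label is drawn from the gate of origin.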

Row | Sequence | polyreactivity (PSR sort gate)
1 | QVQLVESGGGLVQAGGSLRVSCAASGLTFDTNAMGWYRQARGKERELVAAITDSGDSTYYADSVKGRFTISRDNAKNTVYLQMNRLKPEDSAVYYCAARRSNLAWGRRRMYYWGQGTQVTVSS | high polyreactivity
2 | QVQLVESGGGLVQAGGSLRLSCAASGRIFRTYAMGWYRQAPGKERELVAAINSVDRTYYADSVKGRFTISRDNAKNTVYLQMNSLKPEDTAVYYCAATIAPTPGYIIYDYWGQGTQVTVSS | high polyreactivity
3 | QVQLVESGGGLVQAGGSLRLSCAASGIIFRVYTMGWYRQAPGKERELVATIRTSGDSTYYADSVKGRFTISRDNAKNTVYLQMNSLKPEDTAVYYCAKRRNYWHYYWGQGTQVTVSS | high polyreactivity
4 | QVQLQESDGGLVQAGGSLRLSCAASGSISPQYYRGWYRQAPGKEREFVAISKGTSTYYADSVKGRLTISRVNAKNTVYLQMNSLKPEDTAVYCCAAGRWLQKVHAYWDQGTQVTVSS | low polyreactivity
5 | QVQLVESGGGLVQAGGSLRLSCAASGFIIKFYAMGWYRQAPGKERELVATITFSSGTTYYADSVKGRFTISRDNAKNTVYLQMNSLKPEDTAVYYCAASTLPAWPYDGPAGPRYDYWGQGTQVTVSS | low polyreactivity
6 | QVQLVESGGGLVQAGGSLRLSCAASGSTFGWYAMVWYRQAPGKERELVAAIRNNDGRTYYADSVKGRFTISRDNAKNTVYLQMNSLKPEDTAVYYCNADYRSHYLYDYWGQGTQVTVSS | low polyreactivity
7 | QVQLVESWGGLVQAGGTLRLSCAASGSTFTLNCMGWYRQAPGKERELVASITWSGGSTYYADSVKGRFTISRDNAKNTVYLQMNSLKPEDTAVYYCADDEKLYITGYDYWGQGTQVTVSS | low polyreactivity
8 | QVQLVESGGGLVQAGGSLRLSCAASGTTLVIYAMGWYRQAPGKERELVAAINFSDGSTSYADSVKGRFTKSRDNAKNTVYLQMISLKPEDTAVYYWGQGTQVTVSS | low polyreactivity
9 | QVQLVESGGGLVQAGGSLRLSCAASGSTFHPYAMGWYIQAPGKERELVAAITWRVGSTYYADSVKGRFTISRDNAKNTVYLQMNSLKPEDTAVFYCAVSYLSSLGRSRYDYWGQGTQVTVSS | low polyreactivity
10 | QVQLVESGGGLVQAGGSLRLSCAASGSIFVYYAMGWYRQAPGKERELVATISSDVSTYYSDSVKGRFTISRDNAKNTVYVQMNRLKPEDTAVDYCAATVSFDWAYSFSLDLEDDYWGQGTQVTVSS | low polyreactivity
11 | QVQLVESGGGLVQAGGSLRLSCAASGIIFSSYVMGWYRQAPGKERELVAAISSRGVSTYYADSVKGRFTISRDNAKNTVYLQMNSLKPEDTAVYYCAGVGPSYVRYYYWGQGTQVTVSS | high polyreactivity
12 | QVQLVESGGGLVQAGGSLRLSCAPSGSIFVYYAMGWYIQAPGKERELVAAITTSGGSTYYADSVKGRFTISRDNAKNTVYLQMNSLKPEDTAVYYCAAELLAWYWSFSVPCPYDYWGQGTQVTVSS | low polyreactivity
13 | QVQLVETGGGLVQAGGSLRLSCAASRSIFARNAMGWYRQAPGKERELVAAISWSGGRTYYADSVKGRFPISRVNAKNTVYLQMNSLKPEDTAVYYCATYTWWGQGTQVTVSS | high polyreactivity
14 | QVQLVESGGGLVQAGGSLRLSCAASGSTFHNYAMGWYRQAPGKERELVAGISVRGGGTYYADSVKGRFTISRDNAKNNVYLQMNSLKPEDTAVYYCAKRSRYYYRYDYWGQGSQVTVSS | high polyreactivity
15 | QVQLVESGGGLVQAGGSLRLSCAASGRTFYRNTMGWYRQAPGKERELVAAITGSGGITYYADSVKGRFTISRDNAKNTVYLKMNSLKPEDTAVYYCAAARYLGQGTQVTVSS | high polyreactivity
16 | QVQLVESGGGLVQAGGSLRLSCAASGRTFFSYAMGWYRQAPGKERELVAAISWSGGTTYYADSVKGRFTISRDNAKNTVYLQMNSLKPEDTAVYYCAAYVYQEGYRYYYWGQGTQVTVSS | high polyreactivity
17 | QVQLVESGGGLVQAGGSLRLSCAASGFTFYSYAMGWYRQAPGKERELVAAISRSGTTTYYADSVKGRFTISRDNAKNTVYLQMNSLKPEDTAVYYCAARTTSSSLTPSLYYWGQGTQVTVSS | high polyreactivity
18 | QVQLVESGGGLVKAGGSLRLSCAASGRIFKYNAMGWYRQAPGKERELVAVITSGGSTYYADSVKGRFTISRDNAKNTVYLQMNSLKPEDTAVYYWGQGTQVTVSS | low polyreactivity
19 | QVQLVESGGGLVQAGGSLRLSCAASGFTFAVYAMGWDSQAPGKERELVAAISRSGTRTYYADSVKGRFTSSRDNAKNTVSLQMNSLKPEDTAVYYCAADKYRHGYDYWGQGTQVTVSS | low polyreactivity
20 | QVQLVESGGGLVQAGGSLRLSCSASGSTFFWNAMGWYRQAPGKESEFVAAISSSSGSTYYADSVKGRFTISRDNAKNTVYLQMNSLKPEDTAVYYCAARPWGNVFDSAVSYDYWGQGTQVTVSS | low polyreactivity
21 | QVQLVESGGGLVQAGGSLRLSCDASGSTFYRNVIGWYRQAPGKERELVAAISSGGSTYYADSVKGRFTISRDNAKNTVYFQMNSLKPEDTAVYYCAARKRYSYDYWGQGTQVTVSS | low polyreactivity
22 | QVQLVESGGGLVQAGGSLRLSCAASGSTFSNNAMAWYRQAPGKERELVAGINSSGGRTYYADSVKGRFTISRDNAKNTVYLQMISLKPEDTAVYYCAAESRYYYELGYWGQGTQVTVSS | high polyreactivity

Row | Sequence | polyreactivity (PSR sort gate)
23 | QVQLVESGGGLVQAGGSLRLSCAASGLTFGIYAMGWYRQAPGKERELVATISWRGGSTYYADSVKGRFTISRDNAKNTVYLQMNSLKPEDTAVYYCNADNEYRLGYWDDSCGQGTQVTVSS | low polyreactivity
24 | QVQLVESGGGLVQAGGSLRLSCAASGSTFTEYAMGWYRQAPGKERELVAAITRSGGGTYYADSVKGRFTISRDNAKNTVYLQINSLKPEDTAVYYCAKDWYRRYIRDYWGQGTQVTVSS | high polyreactivity
25 | QVQLEESGGGLCQAGGSLRLSCAPSGSIFVSNAMVCYRQAPGKERELVAAITYNGGRTFYADSVKGRFTISRDNAKNTVYLQLNSLKPEDTAVYYFAADGSWHGYGYWGQGTQVTVSS | low polyreactivity
26 | QVQLVESGGGLVQAGGSLRLSCAASGSIFGGYAMGWYRQAPGKERELVAAISSGGSTYYADSVKGRFTISRDNAKNTVYLQMNSLKPEDTAVYYCATSTYAYRRNSYYYTRPRFGYWGQGTQVTVSS | high polyreactivity
27 | QDQLVESGGGLVQAGGSLRLSCAASGRIFRGYAMGWYRQAHGKERELVAVISYSGTRTYYADSVKGRFTISRDNAKNTVYIQMNSLKPEDTAVYYCNARANGFKDGYWGEGTQVTVSS | high polyreactivity
28 | QVQLVESGGGLVQAGGSLRLSCAASGSTFREYAMGWYIQAPGKERELVAAITSRGGSTYYADSVKGRFTISRDNAKNTVYLQMNSLKPEDTAVYYCAADHGTKAEYYYWGQRTQVTVSS | high polyreactivity
29 | QLQLVESGGGLVQAGGSLSLSCAASGSIFGYNAMGWYRPAPGKEREFVAAISFRGTSTYYADSVKGRFTISRDNAKNPVYLQMYSLKPEDTAVYYCAARSYDGDHYKHGYWGQGTQVTVSS | high polyreactivity
30 | QDQLVESGGGLVQAGGSLRLSCAASGRTFAFKSMGWYRQAPGKERELVAAIRWSGGTTYYADSVKGRFTISRDNANNTVYLQMNSLKPEDTAVYYCATGKWVYFRYNYWGLGTQVTVSS | high polyreactivity
31 | QVQLVESGGGLVQAGGSLRLTCAASGFTLGLNAMGWYRQAPGKEREVVAAIRRSAGSTYYADSVKGRFTISRDNAKNTVYLQMNSLKPEDTAVYYCAAGFLWAKYAYGHWGQGTQVTVSS | low polyreactivity
32 | QVQLVESGGGLVQAGGSLRLSCAASGGTQRYYVMGSYRQAPGKERELVAAISWSGDSTYYADSVKGRFTISRDNAKNTVYLQMNSLKPEDTAVYYCAATYYLTYYYGQANHCYDYWGQGTQVTVSS | low polyreactivity
33 | QVQLVESGGGLVQAGGSLRLSFAASGRTFYQYGQGWYRQAPGKERELVAAISDSGGGTYYADSVKGRFTFSRDNAKNTVYLQMNSLIPEDTAVYYCAATYVGPRRRYYYWGQGTQVTVSS | high polyreactivity
34 | QVQLVESGGGLVQAGGSLRLSCAASGSIFSYNAMGWYRQAPGKERELVAAINNGGSTYYADSVKGRFTISRDNAKNTVYLQMNSLKPEDTAVYYCNTARRHCQTQGGDYWGQGTQVTVSS | high polyreactivity
35 | QVQLVESGGGLVQAGGSLRLSCAASGSTFGYYAMGWYRQAPGKERELVAAISYRSGSTYYADSVNGRFTISRDNAKNTVYLQMNSLKPEDTAVYYCAPVIQRQQRYEYWGQGTQVTVSS | high polyreactivity
36 | QVQLVESGGGLVQAGGSLRLSCAASGSIFEGSVMGWSRQAPGKEREWVATISFSGGSTYYADSVKGRFTISRDNAKNTLYLQMNSLKPEDTAVYYCNALVYHTKGDYGYWGQGTQVTVSS | low polyreactivity
37 | QVQLVESGGGLVQAGGSLRLSCAASGFIFYLYAMGWSRQAPGKERELVASINVSGASTRYADSVKGRFTISRDNAKNTVYLQMNSLKPEDTAVYYCAAPSRYDYWGQGTQVTVSS | low polyreactivity
38 | QVQLVESGGGLVQAGGSLRLSCAASGRTFKKYAMGWYRQAPGKERELVAAIRRSGGSTYYADSVKGRFTISRDNAKNTVYLQMNSLKPEDTAVYYCAADFRVGRYDYWGQGTQVTVSS | high polyreactivity
39 | QVQLGDSGGGLVQAGGSLRLSCAPSGSIFQRYAMGWYRLAPGKERELVAAISYNGGSTYYADSVKGRFTISRDNAKNTVYLQMNSLKPEDTAVYYCAARGYRKTRFDYWGQGTKVTVSS | high polyreactivity
40 | QVQLVESGGGLVQAGGSLRISCAASGFTFYRYAMGWYRPAPGKERELVASIRRSDGSTSYADSVKGRFTISRDNAKNTFYLQMNSLKPEDTAVYYCAARYAGSSRYDYWGQGTQVTVSS | high polyreactivity
41 | QVQLVESGGGLVQAGGSLRLSCAASGSTFTSYAMGWYRQAPGKERELVAAISKSGGSTYYADSVKGRFTISRDNAKKTVYFQMNSLKPEDTAVYYCAARYNVRSFSTSSFDYWGQGTQVTVSS | low polyreactivity
42 | QVQIVESGGGFVQAGGSLRLSCAASGRIYGNTMGWYRQAHGKERELVAAITRSGVSTYYADSVKGRFTISRDNAKNTVYLQMNSLKPDDTAVYYCAAREWSGPKINPPYRYNSWGQGTQETVSS | high polyreactivity
43 | QVQLVESGGGLVQAGGSLRISCVASARTFRWYAMGWYRQAPGKERELVATITLNGGSTYYADSVKGRFTISRDNAKNNVYLQMNSLKPEDTAVYYCNRGTNVVRRGVYSFGYDYWGQGTQVTVSS | low polyreactivity
